# T1: FcγRIIa R (human, UniProt P12318 34-217)
# T1 construct: extracellular domain; Soluble extracellular domain with C-terminal His tag, expressed in FreeStyle293 cells; also called FcgRIIa R; FcγRIIa type R; not shown: His tag attached to the C terminus
# T1 sequence (looked up): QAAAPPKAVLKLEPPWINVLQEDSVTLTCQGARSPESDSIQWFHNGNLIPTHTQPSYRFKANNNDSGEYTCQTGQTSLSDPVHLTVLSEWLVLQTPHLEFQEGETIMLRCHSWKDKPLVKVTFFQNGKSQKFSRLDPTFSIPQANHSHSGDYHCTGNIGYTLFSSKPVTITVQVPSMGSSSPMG
# T2: FcγRIIb (human, UniProt P31994 43-217)
# T2 construct: extracellular domain; Soluble extracellular domain with C-terminal His tag, used as analyte in Biacore; also called FcgRIIb; 2b; not shown: His tag attached to the C terminus
# T2 sequence (looked up): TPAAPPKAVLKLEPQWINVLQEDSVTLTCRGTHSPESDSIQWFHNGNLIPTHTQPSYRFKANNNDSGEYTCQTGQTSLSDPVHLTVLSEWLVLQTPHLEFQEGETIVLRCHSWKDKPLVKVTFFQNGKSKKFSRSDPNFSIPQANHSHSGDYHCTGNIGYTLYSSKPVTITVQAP
# B1: GpH7-A5/GpH7-B3 variant G237_02A/GpL16-k0 (antibody, human IgG1, kappa)
# heavy 1: not shown
# heavy 2: not shown
# light: DIVMTQSPLSLPVTPGEPASISCQASESLVHSNRNTYLHWYLQKPGQSPQLLIYKVSNRFSGVPDRFSGSGSGTDFTLKISRVEAEDVGVYYCSQNTHVPPTFGQGTKVEIERTVAAPSVFIFPPSDEQLKSGTASVVCLLNNFYPREAKVQWKVDNALQSGNSQESVTEQDSKDSTYSLSSTLTLSKADYEKHKVYACEVTHQGLSSPVTKSFNRGEC
# notes: Heterodimerized IgG1; mutation in the GpH7-B3 H chain only; also called He Ab
# B2: GpH7-A5/GpH7-B3 variant G236_09D/GpL16-k0 (antibody, human IgG1, kappa)
# heavy 1: not shown
# heavy 2: not shown
# light: B1 light
# notes: as for B1
# B3: GpH7-A5/GpH7-B3 variant G237_04F/GpL16-k0 (antibody, human IgG1, kappa)
# heavy 1: not shown
# heavy 2: not shown
# light: B1 light
# notes: as for B1
# B4: GpH7-A5/GpH7-B3 variant G237_06M/GpL16-k0 (antibody, human IgG1, kappa)
# heavy 1: not shown
# heavy 2: not shown
# light: B1 light
# notes: as for B1
# B5: GpH7-A5/GpH7-B3 variant G237_08L/GpL16-k0 (antibody, human IgG1, kappa)
# heavy 1: not shown
# heavy 2: not shown
# light: B1 light
# notes: as for B1
# B6: GpH7-A5/GpH7-B3 variant G237_09D/GpL16-k0 (antibody, human IgG1, kappa)
# heavy 1: not shown
# heavy 2: not shown
# light: B1 light
# notes: as for B1
# B7: GpH7-A5/GpH7-B3 variant G237_10E/GpL16-k0 (antibody, human IgG1, kappa)
# heavy 1: not shown
# heavy 2: not shown
# light: B1 light
# notes: as for B1
# B8: GpH7-A5/GpH7-B3 variant G237_15Y/GpL16-k0 (antibody, human IgG1, kappa)
# heavy 1: not shown
# heavy 2: not shown
# light: B1 light
# notes: as for B1
# B9: GpH7-A5/GpH7-B3 variant G237_18N/GpL16-k0 (antibody, human IgG1, kappa)
# heavy 1: not shown
# heavy 2: not shown
# light: B1 light
# notes: as for B1
# B10: GpH7-A5/GpH7-B3 variant G237_19Q/GpL16-k0 (antibody, human IgG1, kappa)
# heavy 1: not shown
# heavy 2: not shown
# light: B1 light
# notes: as for B1
# B11: GpH7-A5/GpH7-B3 variant G237_20W/GpL16-k0 (antibody, human IgG1, kappa)
# heavy 1: not shown
# heavy 2: not shown
# light: B1 light
# notes: as for B1
# B12: GpH7-A5/GpH7-B3 variant H268_01G/GpL16-k0 (antibody, human IgG1, kappa)
# heavy 1: not shown
# heavy 2: not shown
# light: B1 light
# notes: as for B1
# B13: GpH7-A5/GpH7-B3 variant H268_02A/GpL16-k0 (antibody, human IgG1, kappa)
# heavy 1: not shown
# heavy 2: not shown
# light: B1 light
# notes: as for B1
# B14: GpH7-A5/GpH7-B3 variant H268_09D/GpL16-k0 (antibody, human IgG1, kappa)
# heavy 1: not shown
# heavy 2: not shown
# light: B1 light
# notes: as for B1
# B15: GpH7-A5/GpH7-B3 variant L234_09D/GpL16-k0 (antibody, human IgG1, kappa)
# heavy 1: not shown
# heavy 2: not shown
# light: B1 light
# notes: as for B1
# B16: GpH7-A5/GpH7-B3 variant L235_09D/GpL16-k0 (antibody, human IgG1, kappa)
# heavy 1: not shown
# heavy 2: not shown
# light: B1 light
# notes: as for B1
# B17: GpH7-A5/GpH7-B3 variant L235_15Y/GpL16-k0 (antibody, human IgG1, kappa)
# heavy 1: not shown
# heavy 2: not shown
# light: B1 light
# notes: as for B1
# B18: GpH7-A5/GpH7-B3 variant L235_20W/GpL16-k0 (antibody, human IgG1, kappa)
# heavy 1: not shown
# heavy 2: not shown
# light: B1 light
# notes: as for B1
# B19: GpH7-A5/GpH7-B3 variant P238_04F/GpL16-k0 (antibody, human IgG1, kappa)
# heavy 1: not shown
# heavy 2: not shown
# light: B1 light
# notes: as for B1
# B20: GpH7-A5/GpH7-B3 variant P238_06M/GpL16-k0 (antibody, human IgG1, kappa)
# heavy 1: not shown
# heavy 2: not shown
# light: B1 light
# notes: as for B1
# B21: GpH7-A5/GpH7-B3 variant P238_08L/GpL16-k0 (antibody, human IgG1, kappa)
# heavy 1: not shown
# heavy 2: not shown
# light: B1 light
# notes: as for B1
# B22: GpH7-A5/GpH7-B3 variant P238_09D/GpL16-k0 (antibody, human IgG1, kappa)
# heavy 1: not shown
# heavy 2: not shown
# light: B1 light
# notes: as for B1
# B23: GpH7-A5/GpH7-B3 variant P238_10E/GpL16-k0 (antibody, human IgG1, kappa)
# heavy 1: not shown
# heavy 2: not shown
# light: B1 light
# notes: as for B1
# B24: GpH7-A5/GpH7-B3 variant S267_07I/GpL16-k0 (antibody, human IgG1, kappa)
# heavy 1: not shown
# heavy 2: not shown
# light: B1 light
# notes: heterodimerized; mutation in one H chain only; also called He Ab
# B25: GpH7-A5/GpH7-B3 variant S337_14T/GpL16-k0 (antibody, human IgG1, kappa)
# heavy 1: not shown
# heavy 2: not shown
# light: B1 light
# notes: as for B24
# B26: GpH7-A5/GpH7-B3 variant T335_04F/GpL16-k0 (antibody, human IgG1, kappa)
# heavy 1: not shown
# heavy 2: not shown
# light: B1 light
# notes: as for B24
# B27: GpH7-A5/GpH7-B3 variant T335_06M/GpL16-k0 (antibody, human IgG1, kappa)
# heavy 1: not shown
# heavy 2: not shown
# light: B1 light
# notes: as for B24
# B28: GpH7-A5/GpH7-B3 variant T335_08L/GpL16-k0 (antibody, human IgG1, kappa)
# heavy 1: not shown
# heavy 2: not shown
# light: B1 light
# notes: as for B24
# B29: GpH7-A5/GpH7-B3 variant T335_09D/GpL16-k0 (antibody, human IgG1, kappa)
# heavy 1: not shown
# heavy 2: not shown
# light: B1 light
# notes: as for B24
# B30: GpH7-A5/GpH7-B3 variant T335_16H/GpL16-k0 (antibody, human IgG1, kappa)
# heavy 1: not shown
# heavy 2: not shown
# light: B1 light
# notes: as for B24
# B31: GpH7-A5/GpH7-B3 variant T335_18N/GpL16-k0 (antibody, human IgG1, kappa)
# heavy 1: not shown
# heavy 2: not shown
# light: B1 light
# notes: as for B24
# B32: GpH7-A5/GpH7-B3 variant T335_19Q/GpL16-k0 (antibody, human IgG1, kappa)
# heavy 1: not shown
# heavy 2: not shown
# light: B1 light
# notes: as for B24
# B33: GpH7-A5/GpH7-B3 variant T335_20W/GpL16-k0 (antibody, human IgG1, kappa)
# heavy 1: not shown
# heavy 2: not shown
# light: B1 light
# notes: as for B24
# B34: GpH7-A5/GpH7-B3 variant V266_06M/GpL16-k0 (antibody, human IgG1, kappa)
# heavy 1: not shown
# heavy 2: not shown
# light: B1 light
# notes: as for B24
# B35: GpH7-A5/GpH7-B3 variant Y296_20W/GpL16-k0 (antibody, human IgG1, kappa)
# heavy 1: not shown
# heavy 2: not shown
# light: B1 light
# notes: as for B24
# B36: GpH7-A5/GpH7-B3 variant Y300_04F/GpL16-k0 (antibody, human IgG1, kappa)
# heavy 1: not shown
# heavy 2: not shown
# light: B1 light
# notes: as for B24
# Target: T3, FcγRIa (human, UniProt P12314 16-292)
# T3 construct: extracellular domain; Soluble extracellular domain with C-terminal His tag, used as analyte in Biacore; also called FcgRI; 1a; not shown: His tag attached to the C terminus
# Assay: SPR (Biacore); He/Con_1a divided by He/Con_2b (FcγRIa against FcγRIIb)
# T3 sequence (P12314 16-292): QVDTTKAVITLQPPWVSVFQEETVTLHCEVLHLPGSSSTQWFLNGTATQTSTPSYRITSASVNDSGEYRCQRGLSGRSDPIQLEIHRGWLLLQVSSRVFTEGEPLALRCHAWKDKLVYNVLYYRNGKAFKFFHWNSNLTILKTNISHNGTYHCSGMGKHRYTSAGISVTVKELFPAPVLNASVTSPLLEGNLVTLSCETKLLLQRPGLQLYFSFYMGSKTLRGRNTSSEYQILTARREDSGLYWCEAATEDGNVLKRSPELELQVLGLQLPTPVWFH
row,Binder,Ia/IIb He_1a/2b [ratio]
1,B1,0.73
2,B2,0.58
3,B3,0.55
4,B4,0.63
5,B5,0.54
6,B6,0.38
7,B7,0.66
8,B8,0.52
9,B9,0.46
10,B10,0.77
11,B11,0.41
12,B12,0.75
13,B13,0.65
14,B14,0.46
15,B15,0.65
16,B16,0.8
17,B17,0.65
18,B18,0.63
19,B19,0.32
20,B20,0.59
21,B21,0.49
22,B22,0.43
23,B23,0.44

# Target: T1, FcγRIIa R
# Assay: SPR (Biacore), antibody captured via antigen peptide, FcγRIIa R as analyte; heterodimerized antibody
# Protocol: Analysis of interaction between objective antibody and the FcγR was carried out using Biacore T100 (GE Healthcare). HBS-EP+ (GE Healthcare) was used as the running buffer, and the measurement temperature was set to 25° C. Chips produced by immobilizing the antigen peptide by the amine coupling method to a Series S Sencor Chip CM5 (GE Healthcare), or alternatively, chips produced by allowing preliminarily biotinylated antigen peptides to interact with and immobilize onto a Series S Sensor Chip SA (certified) (GE Healthcare) were used. Antibodies of interest were captured onto an antigen peptide-immobilized chip, and allowed to interact to each FcγR diluted with running buffer. To regenerate and repeatedly use the chip, the antibodies captured on the chip were washed off by reacting 10 mM glycine-HCl, pH 1.5.
row,Binder,He/Con_2aR
1,B24,111 % of control (GpH7-A5/GpH7-B3/GpL16-k0 = 100)
2,B25,110 % of control (GpH7-A5/GpH7-B3/GpL16-k0 = 100)
3,B26,108 % of control (GpH7-A5/GpH7-B3/GpL16-k0 = 100)
4,B27,105 % of control (GpH7-A5/GpH7-B3/GpL16-k0 = 100)
5,B28,108 % of control (GpH7-A5/GpH7-B3/GpL16-k0 = 100)
6,B29,110 % of control (GpH7-A5/GpH7-B3/GpL16-k0 = 100)
7,B30,108 % of control (GpH7-A5/GpH7-B3/GpL16-k0 = 100)
8,B31,106 % of control (GpH7-A5/GpH7-B3/GpL16-k0 = 100)
9,B32,106 % of control (GpH7-A5/GpH7-B3/GpL16-k0 = 100)
10,B33,109 % of control (GpH7-A5/GpH7-B3/GpL16-k0 = 100)
11,B34,150 % of control (GpH7-A5/GpH7-B3/GpL16-k0 = 100)
12,B35,110 % of control (GpH7-A5/GpH7-B3/GpL16-k0 = 100)
13,B36,108 % of control (GpH7-A5/GpH7-B3/GpL16-k0 = 100)

# Target: T3, FcγRIa
# Assay: SPR (Biacore), antibody captured on antigen peptide, FcγR as analyte; relative to GpH7-A5/GpH7-B3/GpL16-k0 = 100
row,Binder,He/Con_1a
1,B1,90.3 % of control
2,B2,96.6 % of control
3,B3,81.5 % of control
4,B4,81.6 % of control
5,B5,79.6 % of control
6,B6,84 % of control
7,B7,75.1 % of control
8,B8,79.6 % of control
9,B9,82.5 % of control
10,B10,82.8 % of control
11,B11,78.4 % of control
12,B12,107 % of control
13,B13,109 % of control
14,B14,110 % of control
15,B15,97.8 % of control
16,B16,84.8 % of control
17,B17,97.1 % of control
18,B18,92.8 % of control
19,B19,101 % of control
20,B20,102 % of control
21,B21,101 % of control
22,B22,96 % of control
23,B23,102 % of control

# Target: T2, FcγRIIb
# Assay: as above
row,Binder,He/Con_2b
1,B1,124 % of control
2,B2,167 % of control
3,B3,149 % of control
4,B4,130 % of control
5,B5,148 % of control
6,B6,223 % of control
7,B7,114 % of control
8,B8,152 % of control
9,B9,180 % of control
10,B10,108 % of control
11,B11,193 % of control
12,B12,144 % of control
13,B13,167 % of control
14,B14,239 % of control
15,B15,150 % of control
16,B16,106 % of control
17,B17,149 % of control
18,B18,147 % of control
19,B19,312 % of control
20,B20,174 % of control
21,B21,204 % of control
22,B22,221 % of control
23,B23,232 % of control
